Measurements from the supplement of paper PMC7877785.
± gives the uncertainty stated by the source.

Assay: self-splicing fitness, log relative to wild type (ln ratio); higher = more splicing; Tetrahymena group I intron in knt gene, E. coli kanamycin selection, DiMSum; sequences stand for … in CUCUCU…GGAGGGAAAAGUUAUCAGGCAUGCACCUGGUAGCUAGUCUUUAAACCAAUAGAUUGCAUCGGUUUAAAAGGCAAGACCGUCAAAUUGCGGGAAAGGGGUCAACAGCCGUUCAGUACCAAGUCUCAGGGGAAACUUUGAGAUGGCCUUGCAAAGGGUAUGGUAAUAAGCUGACGGACAUGGUCCUAACCACGCAGCCAAGUCCUAAGUCAACAGAUCUUCUGUUGAUAUGGAUGCAGUUCACAGACUAAAUGUCGGUCGGGGAAGAUGUAUUCUUCUCAUAAGAUAUAGUCGGACCUCUCCUUAAUGGGAGCUAGCGGAUGAAGUGAUGCAACACUGGAGCCGCUGGGAACUAAUUUGUAUGCGAAAGUAUAUUGAUUAGUUUUGGAGUACUCGUGGUCG
Outline: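 Fitness was computed with DiMSum as the error-weighted combination of replicate fold changes, kanamycin versus none, each normalised to wild type. The library randomised all eight intron nucleotides of the P1ex region, with the intron placed in the knt kanamycin-resistance gene on pET-22b(+) in E. coli BL21(DE3). Six replicate transformations were grown overnight at 37°C or 30°C on LB agar with or without 25 μg/mL kanamycin, plus 100 μg/mL carbenicillin, 50 μM IPTG and 0.2% rhamnose. Pooled colonies were amplicon-sequenced on an Illumina HiSeq 2500.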

| Sequence | self-splicing fitness (ln) (30 °C) | self-splicing fitness (ln) (37 °C) |
| --- | --- | --- |
| ACAAAGCAAUAUUACGGUAG | -3.48 ± 0.16 | -3.21 ± 0.24 |
| ACAAAGCAAUAUUACGGUCA | -0.595 ± 0.069 | -0.472 ± 0.07 |
| ACAAAGCAAUAUUACGUAAA | -2.08 ± 0.069 | -0.302 ± 0.092 |
| ACAAAGCAAUAUUACGUAGC | -2.35 ± 0.086 | -2.01 ± 0.12 |
| ACAAAGCAAUAUUACGUCAU | -3.08 ± 0.12 | -2.4 ± 0.14 |
| ACAAAGCAAUAUUACGUCUU | -0.827 ± 0.051 | -0.41 ± 0.064 |
| ACAAAGCAAUAUUACGUGUA | -2.6 ± 0.1 | -1.56 ± 0.084 |
| ACAAAGCAAUAUUACGUUCC | -2.06 ± 0.11 | -1.73 ± 0.15 |
| ACACAGCAAUAUUACGAAUG | -2.63 ± 0.1 | -1.08 ± 0.084 |
| ACACAGCAAUAUUACGACAU | -0.676 ± 0.01 | -0.0836 ± 0.031 |
| ACACAGCAAUAUUACGAGUC | -5.36 ± 0.27 | -3.05 ± 0.19 |
| ACACAGCAAUAUUACGCACU | -0.282 ± 0.045 | 0.182 ± 0.058 |
| ACACAGCAAUAUUACGCAUC | -3.23 ± 0.21 | -0.58 ± 0.094 |
| ACACAGCAAUAUUACGCCCC | -1.66 ± 0.14 | -0.901 ± 0.15 |
| ACACAGCAAUAUUACGCCCG | -0.876 ± 0.092 | -0.533 ± 0.12 |
| ACACAGCAAUAUUACGCGAC | -2.72 ± 0.098 | -2.15 ± 0.11 |
| ACACAGCAAUAUUACGCGGC | -2.29 ± 0.12 | -2.92 ± 0.16 |
| ACACAGCAAUAUUACGCGGU | -4.42 ± 0.23 | -2.89 ± 0.17 |
| ACACAGCAAUAUUACGCUCG | -0.365 ± 0.064 | 0.194 ± 0.085 |
| ACACAGCAAUAUUACGGAAG | -3.07 ± 0.14 | -1.12 ± 0.11 |
| ACACAGCAAUAUUACGGACG | -0.635 ± 0.057 | 0.0496 ± 0.073 |
| ACACAGCAAUAUUACGGAUA | -2.87 ± 0.15 | -2.54 ± 0.15 |
| ACACAGCAAUAUUACGGCCU | -0.094 ± 0.086 | -0.0787 ± 0.12 |
| ACACAGCAAUAUUACGGGAC | -3.3 ± 0.14 | -2.12 ± 0.14 |
| ACACAGCAAUAUUACGGGGC | -2.8 ± 0.16 | -3.16 ± 0.19 |
| ACACAGCAAUAUUACGGUAA | -3.67 ± 0.21 | -1.18 ± 0.1 |

| Sequence | self-splicing fitness (ln) (30 °C) | self-splicing fitness (ln) (37 °C) |
| --- | --- | --- |
| ACACAGCAAUAUUACGUCAG | -3.58 ± 0.14 | -1.67 ± 0.12 |
| ACACAGCAAUAUUACGUGCG | -0.45 ± 0.044 | -0.606 ± 0.063 |
| ACACAGCAAUAUUACGUUCC | -2.17 ± 0.088 | -1.29 ± 0.1 |
| ACACAGCAAUAUUACGUUUA | -2.9 ± 0.11 | -1.99 ± 0.088 |
| ACAGAGCAAUAUUACGAAAC | -2.71 ± 0.29 |  |
| ACAGAGCAAUAUUACGAGCG | -3.08 ± 0.14 | -2.51 ± 0.19 |
| ACAGAGCAAUAUUACGAUAC | -1.87 ± 0.35 |  |
| ACAGAGCAAUAUUACGAUCA | -3.4 ± 0.28 |  |
| ACAGAGCAAUAUUACGAUGA | -1.49 ± 0.17 | -1.15 ± 0.16 |
| ACAGAGCAAUAUUACGCGCG | -2.69 ± 0.098 | -1.47 ± 0.1 |
| ACAGAGCAAUAUUACGCUGG | -3.47 ± 0.14 | -2.53 ± 0.16 |
| ACAGAGCAAUAUUACGGAAA | -3.38 ± 0.36 | -2.81 ± 0.38 |
| ACAGAGCAAUAUUACGGAGU | -3.05 ± 0.23 | -3.24 ± 0.35 |
| ACAGAGCAAUAUUACGGAUC | -3.24 ± 0.4 | -1.85 ± 0.26 |
| ACAGAGCAAUAUUACGGAUU | -3.67 ± 0.18 | -1.84 ± 0.14 |
| ACAGAGCAAUAUUACGGCAG | -2.25 ± 0.14 | -2.45 ± 0.22 |
| ACAGAGCAAUAUUACGGCCG | -2.2 ± 0.27 | -1.33 ± 0.25 |
| ACAGAGCAAUAUUACGGCGC | -1.6 ± 0.14 | -0.0642 ± 0.18 |
| ACAGAGCAAUAUUACGGUGA | -2.32 ± 0.13 | -2.41 ± 0.21 |
| ACAGAGCAAUAUUACGGUUA | -2.77 ± 0.21 | -3.05 ± 0.33 |
| ACAGAGCAAUAUUACGUAUC | -4.32 ± 0.29 | -1.46 ± 0.14 |
| ACAGAGCAAUAUUACGUCAC | -3.39 ± 0.26 | -2.43 ± 0.41 |
| ACAGAGCAAUAUUACGUCCA | -2.34 ± 0.2 | -2.25 ± 0.26 |
| ACAGAGCAAUAUUACGUGUU | -2.64 ± 0.12 | -2.51 ± 0.18 |
| ACAGAGCAAUAUUACGUUCG | -2.06 ± 0.11 | -0.493 ± 0.12 |
| ACAGAGCAAUAUUACGUUGC | -2.78 ± 0.18 |  |

| Sequence | self-splicing fitness (ln) (30 °C) | self-splicing fitness (ln) (37 °C) |
| --- | --- | --- |
| ACAGAGCAAUAUUACGUUGU | -3.88 ± 0.2 | -2.34 ± 0.18 |
| ACAUAGCAAUAUUACGAAAA | -2.4 ± 0.25 | -3.31 ± 0.3 |
| ACAUAGCAAUAUUACGAAAC | -3.95 ± 0.26 | -2.45 ± 0.33 |
| ACAUAGCAAUAUUACGAAAG | -3.36 ± 0.22 | -2.06 ± 0.23 |
| ACAUAGCAAUAUUACGAAAU | -3.43 ± 0.19 | -2.75 ± 0.26 |
| ACAUAGCAAUAUUACGAACC | -1.16 ± 0.13 | -1.13 ± 0.2 |
| ACAUAGCAAUAUUACGAACU | -0.612 ± 0.1 | 0.274 ± 0.12 |
| ACAUAGCAAUAUUACGACAC | -1.62 ± 0.15 | -1.29 ± 0.21 |
| ACAUAGCAAUAUUACGACAU | -0.718 ± 0.011 | -0.22 ± 0.032 |
| ACAUAGCAAUAUUACGAGCC | -3.94 ± 0.36 | -2.42 ± 0.28 |
| ACAUAGCAAUAUUACGCCAC | -3.57 ± 0.27 | -0.959 ± 0.17 |
| ACAUAGCAAUAUUACGCCGC |  | -2.65 ± 0.4 |
| ACAUAGCAAUAUUACGCCUC |  | -1.29 ± 0.24 |
| ACAUAGCAAUAUUACGGACU | -0.288 ± 0.057 | 0.36 ± 0.074 |
| ACAUAGCAAUAUUACGGAGU | -3.73 ± 0.12 | -2.55 ± 0.13 |
| ACAUAGCAAUAUUACGGAUU | -3.42 ± 0.13 | -1.68 ± 0.12 |
| ACAUAGCAAUAUUACGGCAA | -0.85 ± 0.09 | -0.569 ± 0.084 |
| ACAUAGCAAUAUUACGGCAC | -1.56 ± 0.11 | -1.2 ± 0.15 |
| ACAUAGCAAUAUUACGGCCU | -0.828 ± 0.074 | 0.129 ± 0.1 |
| ACAUAGCAAUAUUACGGCGU | -0.355 ± 0.07 | 0.246 ± 0.081 |
| ACAUAGCAAUAUUACGGUAU | -3.6 ± 0.11 | -1.77 ± 0.11 |
| ACAUAGCAAUAUUACGGUGU | -3.8 ± 0.21 | -3.54 ± 0.3 |
| ACAUAGCAAUAUUACGUAAC | -3.65 ± 0.23 | -3.2 ± 0.35 |
| ACAUAGCAAUAUUACGUAAU | -2.87 ± 0.11 | -1.93 ± 0.14 |
| ACAUAGCAAUAUUACGUACG | -2.39 ± 0.12 | -1.87 ± 0.16 |
| ACAUAGCAAUAUUACGUAGA | -3.71 ± 0.15 | -1.62 ± 0.12 |
